Experiment in all cases: ITC
The target in assay [1] is Xenopus laevis core histone H2B (X. laevis, UniProt P02281 1-126).
Assay [2] has as its target Xenopus laevis core histone H3 (X. laevis, UniProt P84233 1-136).
The target of assay [3] is Chicken erythrocyte H3–H4 histone dimer (chicken, UniProt P84229 1-136; P62801 1-103).

B1: Arabidopsis thaliana NAP1-related protein 1 (NRP1) (natural protein)
chain: MVADKSKKSKIEEKGEEENLEQIDAELVLSIEKLQEIQDDLEKINEKASDEVLEVEQKYNVIRKPVYDKRNEVIQSIPGFWMTAFLSHPALGDLLTEEDQKIFKYLNSLEVEDAKDVKSGYSITFHFTSNPFFEDAKLTKTFTFLEEGTTKITATPIKWKEGKGLPNGVNHDDKKGNKRALPEESFFTWFTDAQHKEDAGDEIHDEVADIIKEDLWSNPLTYFNNDADEEDFDGDDDGDEEGEEDDDDEEEEDGEE
As for B1, the results for the Kd in assay [1], in assay [2] and in assay [3] were 9.6 µM, 20 µM and 0.4 µM, respectively.

(Values after article PMC5389710 (Nucleic Acids Research, 2016).)
